Test results as given in US6348573B1, “Compositions and methods for identifying apoptosis signaling pathway inhibitors and activators” (The Regents of the University of Michigan, priority 1998, dated 2002).
One block for each molecule: values may come before it.

Key:
BJAB cells = test: BJAB apoptosis induced by anti-CD95 (anti-APO1) antibody; format: cell-based, human; conditions: BJAB stably expressing the mutant vs control plasmid, PI staining
Procedure: The total amount of transfected plasmid DNA was adjusted with pcDNA3 plasmid to be the same within individual experiments. After transfection, 293T cells were harvested at different times and lysed with 0.2% NP-40 isotonic lysis buffer [N. Inohara et al., Proc. Natl. Acad. Sci. U.S.A. 94:10717-10722 (1997)]. The B lymphocyte-derived BJAB cell line was stably trasnfected by electroporation with pcDNA3 or pcDNA3-Flag-RICK (K38M). After selection with […] (1 μg/ml), bulk cell lines were tested for RICK protein expression with anti-Flag antibody by flow cytometric analysis. […]
Apoptosis Assays: 5×10^5 293T cells were co-transfected with 0.2 μg of pcDNA3-β-gal plus each expression plasmid in triplicate by the calcium phosphate method as reported [N. Inohara et al., Proc. Natl. Acad. Sci. U.S.A. 94:10717-10722 (1997)]. […] At least 300 hundred blue-staining cells were counted. BJAB apoptosis induced by anti-Apol mAb was determined by flow cytometric analysis of nuclei stained with propidium iodide as described [R. Merino et al., J. Immunol. […] Statistical significance was determined by one-way ANOVA followed by Student-Neuman-Keuls post-doc comparisons.

293T cells = test: Apoptosis assay, RICK co-transfection; format: cell-based, human; conditions: 293T cells
Procedure: (§1) The total amount of transfected plasmid DNA was adjusted with pcDNA3 plasmid to be the same within individual experiments. After transfection, 293T cells were harvested at different times and lysed with 0.2% NP-40 isotonic lysis buffer [N. Inohara et al., Proc. Natl. Acad. Sci. U.S.A. 94:10717-10722 (1997)]. The B lymphocyte-derived BJAB cell line was stably trasnfected by electroporation with pcDNA3 or pcDNA3-Flag-RICK (K38M). After selection with […] (1 μg/ml), bulk cell lines were tested for RICK protein expression with anti-Flag antibody by flow cytometric analysis. For immunoprecipitation, 1 mg of soluble protein was incubated with 10 μg/ml of polyclonal anti-Flag, anti-myc or control antibody overnight at 4° C. and tagged proteins were immunoprecipitated with Protein A-Sepharose 4B (Zymed Laboratories Inc.). Immunoprecipitated proteins or total lysates were subjected to 12% SDS-polyacrylamide electrophoresis and immunoblotted with monoclonal antibodies (mAb) to HA (Boeringer Mannheim) or Flag (Kodak).
Apoptosis Assays: 5×10^5 293T cells were co-transfected with 0.2 μg of pcDNA3-β-gal plus each expression plasmid in triplicate by the calcium phosphate method as reported [N. Inohara et al., Proc. Natl. Acad. Sci. U.S.A. 94:10717-10722 (1997)]. In some experiments, 20 μM of the caspase inhibitor zVAD-fmk (Enzyme Systems Products) or 12.5 μl of medium from […] cells producing Fas ligand (Immunex Corporation, Seattle, Wash.) was added at 8 hrs after transfection. At 18 or 24 hours after transfection, cells were fixed, stained for β-galactosidase as described [N. Inohara et al., Proc. Natl Acad. Sci. U.S.A. 94:10717-10722 (1997)] and assayed for morphological features of apoptosis. At least 300 hundred blue-staining cells were counted. BJAB apoptosis induced by anti-Apol mAb was determined by flow cytometric analysis of nuclei stained with propidium iodide as described [R. Merino et al., J. Immunol. 155:3830-3838 (1995)]. Statistical significance was determined by one-way ANOVA followed by Student-Neuman-Keuls post-doc comparisons.

caspase-8 = biological target: T1, caspase-8 (Homo sapiens, UniProt Q14790); test: Caspase enzymatic assay (Ac-DEVD-AMC) after RICK co-transfection; format: biochemical; conditions: immunoprecipitated caspase-8, Ac-DEVD-AMC substrate
T1 construct: expressed in transfected cells; host or cells: human 293T cells
Procedure: Caspase Enzymatic Assay: The human FADD cDNA was cloned into the BamHI and XhoI sites of pcDNA3-myc to produce C-terminal myc-tagged FADD. 5×10^6 293T cells were transfected with 5 μg of pcDNA3, pcDNA3-caspase-8-AU1 or pcDNA3-caspase-8-mt-AU1 [N. Inohara et al., Proc. Natl. Acad. Sci. U.S.A. 94:10717-10722 (1997)] plus 5 μg of pcDNA3, pcDNA3-FADD-myc or pcDNA3- Flag-RICK. At 16 hours after transfection, cells were harvested and lysed with NP-40 buffer [N. Inohara et al., Proc. Natl. Acad. Sci. U.S.A. 94:10717-10722 (1997)]. AU1-tagged proteins were immunoprecipitated with mAb to AU1 and the Ac-DEVD-AMC cleavage activity was measured as previously described [N. Inohara et al., Proc. Natl. Acad. Sci. U.S.A. 94:10717-10722 (1997)].

CLARP [1] = biological target: T2, CLARP (Homo sapiens, UniProt O15519); test: Co-immunoprecipitation of RICK with CLARP; format: binding
Procedure: as §1

[2] = test system: caspase-1, caspase-2, caspase-3, caspase-4, caspase-8, CED-3, CED-4, Bcl-XL, TRAF2, c-IAP-1, c-IAP-2 or RAIDD; test: Association of RICK with other apoptosis regulatory proteins; format: binding; conditions: 293T lysates
Procedure: as §1

FADD [3] = biological target: T3, FADD (Homo sapiens, UniProt Q13158); test: In vitro phosphorylation of recombinant FADD by RICK immunoprecipitates; format: biochemical; conditions: immunoprecipitates from 293T cells, 5 μM [γ-32P]ATP
T3 construct: made in house
T3 sequence (Q13158 1-208): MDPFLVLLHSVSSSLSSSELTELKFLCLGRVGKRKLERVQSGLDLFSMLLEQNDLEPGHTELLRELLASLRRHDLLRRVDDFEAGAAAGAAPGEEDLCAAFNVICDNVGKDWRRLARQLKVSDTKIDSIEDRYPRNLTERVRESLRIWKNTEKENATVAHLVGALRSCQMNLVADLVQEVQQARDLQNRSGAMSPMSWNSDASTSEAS
Description: CIPERK proteins in total lysate were detected by immunoblotting with mAb to Flag (middle panel). Recombinant FADD on the same filter used in (A) was detected by immunoblotting, with rabbit polyclonal anti-(His)6 antibody (lower panel). Note CIPERK was autophosphorylated. The estimated molecular size is shown on the left [293T cells were transfected with vector control or plasmid expressing Flag-CIPERK (WT) or Flag-CIPERK-K38M (mt), and then CIPERK proteins were immunoprecipitated by mAb to Flag and incubated with recombinant FADD and 5 μM [γ-^32P]ATP].

NF-KB = NF-KB activation by RICK; format: cell-based, human; conditions: 293T cells
FADD [4] = biological target: T3, FADD; test: FADD phosphorylation in transfected cells; format: cell-based; conditions: 293T cells, co-expression with CLARP
Procedure: Therefore, next it was determined whether expression of CIPERK can regulate the phosphorylation of FADD in vivo. Expression plasmids producing HA-CLARP, Flag-CIPERK and AU1-FADD were transiently transfected into 293T cells, and the expression of FADD was monitored by immunoblotting with anti-AU1 antibody. Transfection of plasmids producing either FADD or FADD plus CIPERK induced the expression of two closely migrating AU1-tagged FADD proteins of ˜27 kDa (FIG. 12A). In contrast, co-expression of FADD, CIPERK and CLARP induced the expression of two additional FADD bands migrating at ˜30 kDa (FIG. 12A), previously shown to represent phosphorylated FADD [B. Z. Stanger et al., Cell 81:513-523 (1995)]. […] The increased induction of FADD phosphorylation by CLARP was specific in that was not observed when FADD was co-expressed with only CIPERK and caspase-8 (FIG. 12A). Furthermore, FADD phosphorylation was induced by ectopic expression of CD95 (FIG. 12B), a stimulus known to induce CD95 oligomerization and activation [J. P. Medema et al., EMBO J. 16:2794 -2804 (1997); B. Z. Stanger et al., Cell 81:513-523 (1995)].

CLARP [5] = biological target: T2, CLARP; test: Co-immunoprecipitation of RICK with CLARP; format: binding; parameters: expressed in transfected cells; host or cells: human 293T cells; conditions: CLARP-C (residues 246-480)
Procedure: as §1

[6] = biological target: T4, Flag-tagged RICK (RIP-like interacting CLARP kinase), pcDNA3-Flag-RICK (human, UniProt O43353 11-540, limits assumed); test: anti-Flag immunoprecipitation from co-transfected 293T cells, anti-HA immunoblot
T4 construct: Entire open reading frame of RICK, expressed in 293T cells; also called CIPERK; Flag-CIPERK; not shown: N-terminal Flag tag
T4 sequence (O43353 other isoform, or with tags, fused parts or gaps limits assumed): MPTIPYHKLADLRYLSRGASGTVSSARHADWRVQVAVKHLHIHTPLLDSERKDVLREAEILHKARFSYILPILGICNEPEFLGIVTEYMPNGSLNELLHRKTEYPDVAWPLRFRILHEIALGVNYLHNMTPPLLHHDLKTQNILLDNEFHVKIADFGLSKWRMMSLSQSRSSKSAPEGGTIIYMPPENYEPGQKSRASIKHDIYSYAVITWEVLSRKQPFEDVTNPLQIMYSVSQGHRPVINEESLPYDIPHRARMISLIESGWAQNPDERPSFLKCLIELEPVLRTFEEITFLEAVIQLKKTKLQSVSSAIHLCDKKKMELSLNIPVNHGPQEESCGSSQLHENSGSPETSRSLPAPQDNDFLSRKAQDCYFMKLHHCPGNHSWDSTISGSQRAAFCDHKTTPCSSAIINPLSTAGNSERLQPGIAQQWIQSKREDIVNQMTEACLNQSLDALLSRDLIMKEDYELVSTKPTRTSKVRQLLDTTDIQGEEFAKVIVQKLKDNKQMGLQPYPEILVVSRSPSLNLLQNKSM

Molecule: RICK-K38M: RICK ATP-binding site mutant, lysine at position 38 replaced by methionine
sensitivity to anti-APO1-induced apoptosis (BJAB cells): significantly less sensitive

Molecule: RICK: RIP-like interacting CLARP kinase, protein of 531 amino acids (SEQ ID NO:1)
induction of apoptosis by expression of RICK (293T cells; RICK alone): did not | apoptosis induced by FADD, CLARP and caspase-8 (293T cells; co-expression of wt or mutant RICK): enhanced | apoptosis promoted by caspase-8 (293T cells; co-expression with RICK): augmented | apoptosis promoted by caspase-10 (293T cells; co-expression with RICK): augmented | apoptosis induced by caspase-8-mt (293T cells; co-expression with RICK, Cys377 to Ser mutant): did not augment | enzymatic activity of wild-type (wt) caspase-8 (caspase-8): enhanced | co-immunoprecipitation with CLARP (CLARP [1]; 293T lysates): co-immunoprecipitated | interaction with the N-terminal DED-containing domain of CLARP (CLARP [1]; CLARP-N): not | association with multiple apoptosis regulatory proteins (caspase-1, -2, -3, -4, -8, CED-3, CED-4, Bcl-XL, TRAF2, c-IAP-1, c-IAP-2, RAIDD) [2]: did not associate | phosphorylation of recombinant FADD (FADD [3]): induced phosphorylation | activation of NFkB (NF-KB): induction of NFkB | phosphorylation of FADD in cells (FADD [4]): induced the phosphorylation of FADD in the presence of CLARP | interaction with the C-terminal caspase-like domain of CLARP (CLARP [5]): interacted

B1: caspase-8, epitope-tagged (pcDNA3-caspase-8-AU1) (enzyme, human, UniProt Q14790-4 1-496, looked up, not shown: small tags and cut ends)
chain: MDFSRNLYDIGEQLDSEDLASLKFLSLDYIPQRKQEPIKDALMLFQRLQEKRMLEESNLSFLKELLFRINRLDLLITYLNTRKEEMERELQTPGRAQISAYRFHFCRMSWAEANSQCQTQSVPFWRRVDHLLIRVMLYQISEEVSRSELRSFKFLLQEEISKCKLDDDMNLLDIFIEMEKRVILGEGKLDILKRVCAQINKSLLKIINDYEEFSKGEELCGVMTISDSPREQDSESQTLDKVYQMKSKPRGYCLIINNHNFAKAREKVPKLHSIRDRNGTHLDAGALTTTFEELHFEIKPHDDCTVEQIYEILKIYQLMDHSNMDCFICCILSHGDKGIIYGTDGQEAPIYELTSQFTGLKCPSLAGKPKVFFIQACQGDNYQKGIPVETDSEEQPYLEMDLSSPQTRYIPDEADFLLGMATVNNCVSYRNPAEGTWYIQSLCQSLRERCPRGDDILTILTEVNYEVSNKDDKKNMGKQMPQPTFTLRKKLVFPSD
notes: also called AU1-tagged caspase-8; FLICE
binding result [6]: no binding

B2: caspase-4 (enzyme, UniProt P49662 1-377, looked up, not shown: small tags and cut ends)
chain: MAEGNHRKKPLKVLESLGKDFLTGVLDNLVEQNVLNWKEEEKKKYYDAKTEDKVRVMADSMQEKQRMAGQMLLQTFFNIDQISPNKKAHPNMEAGPPESGESTDALKLCPHEEFLRLCKERAEEIYPIKERNNRTRLALIICNTEFDHLPPRNGADFDITGMKELLEGLDYSVDVEENLTARDMESALRAFATRPEHKSSDSTFLVLMSHGILEGICGTVHDEKKPDVLLYDTIFQIFNNRNCLSLKDKPKVIIVQACRGANRGELWVRDSPASLEVASSQSSENLEEDAVYKTHVEKDFIAFCSSTPHNVSWRDSTMGSIFITQLITCFQKYSWCCHLEEVFRKVQQSFETPRAKAQMPTIERLSMTRYFYLFPGN
binding result [6]: no binding

Second part, the molecule after the results:

binding result [6]: no binding
B3: C. elegans CED-3, epitope-tagged (pcDNA3-Ced-3-Flag) (enzyme, UniProt P42573 1-503, looked up)
chain: MMRQDRRSLLERNIMMFSSHLKVDEILEVLIAKQVLNSDNGDMINSCGTVREKRREIVKAVQRRGDVAFDAFYDALRSTGHEGLAEVLEPLARSVDSNAVEFECPMSPASHRRSRALSPAGYTSPTRVHRDSVSSVSSFTSYQDIYSRARSRSRSRALHSSDRHNYSSPPVNAFPSQPSSANSSFTGCSSLGYSSSRNRSFSKASGPTQYIFHEEDMNFVDAPTISRVFDEKTMYRNFSSPRGMCLIINNEHFEQMPTRNGTKADKDNLTNLFRCMGYTVICKDNLTGRGMLLTIRDFAKHESHGDSAILVILSHGEENVIIGVDDIPISTHEIYDLLNAANAPRLANKPKIVFVQACRGERRDNGFPVLDSVDGVPAFLRRGWDNRDGPLFNFLGCVRPQVQQVWRKKPSQADILIAYATTAQYVSWRNSARGSWFIQAVCEVFSTHAKDMDVVELLTEVNKKVACGFQTSQGSNILKQMPEMTSRLLKKFYFWPEARNSAV
notes: not shown: position and

binding result [6]: no binding
B4: TRAF2 (other, UniProt Q12933 1-501, looked up, not shown: small tags and cut ends)
chain: MAAASVTPPGSLELLQPGFSKTLLGTKLEAKYLCSACRNVLRRPFQAQCGHRYCSFCLASILSSGPQNCAACVHEGIYEEGISILESSSAFPDNAARREVESLPAVCPSDGCTWKGTLKEYESCHEGRCPLMLTECPACKGLVRLGEKERHLEHECPERSLSCRHCRAPCCGADVKAHHEVCPKFPLTCDGCGKKKIPREKFQDHVKTCGKCRVPCRFHAIGCLETVEGEKQQEHEVQWLREHLAMLLSSVLEAKPLLGDQSHAGSELLQRCESLEKKTATFENIVCVLNREVERVAMTAEACSRQHRLDQDKIEALSSKVQQLERSIGLKDLAMADLEQKVLEMEASTYDGVFIWKISDFARKRQEAVAGRIPAIFSPAFYTSRYGYKMCLRIYLNGDGTGRGTHLSLFFVVMKGPNDALLRWPFNQKVTLMLLDQNNREHVIDAFRPDVTSSSFQRPVNDMNIASGCPLFCPVSKMEAKNSYVRDDAIFIKAIVDLTGL
